Reference: PMC8476643 (Nature Communications, 2021)

B1: 7D6 monoclonal antibody (antibody, V domains shown)
VH: EVQLQQSGAELVRPGASVKLSCTASGFNIKDTYIHWVKQRPEQGLEWIGRIDPGDGDTEYDPSFQGKATITADTSSNTAYLELSSLTSEDTAVYYCTRFYDYVDYGMDYWGQGTSVTVSS
VL: DIQMTQSPASLSASVGETVTITCRASGNIHNYLAWYQQKQGKSPQLLVYNAKTLADGVPSRFSGSGSGTQYSLKINSLQPEDFGSYYCQHFWSTPPWTFGGGTKLEVK
notes: also called mAb 7D6; source: mouse hybridoma, ascites, purified (protein A agarose); copies: 2 + 2
B2: 6D6 monoclonal antibody (antibody, V domains shown)
VH: EVQLQQSGAELVKPGASVKLSCTTSGFNIIDTYMHWVKQRPEEGLEWIGGIDPVNGNSEYDPKFQDKATITADTSSNTAYLHLSRLTSEDTAVYYCASAHYYGSSSSFPYWGQGTLVTVSA
VL: DIVMTQSQKFMSTSVGDRVSVTCKASQNVGTHVAWYQQKPGQSPKALIYSASYRYSGVPDRFTGSGVGTDFTLTITNVQSEDLAEYFCQQYNSYFTFGSGTKLEIK
notes: also called mAb 6D6; source: mouse hybridoma, ascites, purified (protein A agarose); copies: 2 + 2

Legend:
[1] = target: T1, SARS-CoV-2 receptor-binding domain (RBD) (SARS-CoV-2 Wuhan-Hu-1 (GenBank …, UniProt P0DTC2)); assay: SPR; details: both partners purified
T1 construct: source: High Five cells (baculovirus, pAcgp67B), purified from the medium (Ni-sepharose)

[2] = target: T1, SARS-CoV-2 receptor-binding domain (RBD); assay: SPR; details: both partners purified; remark: listed apart in the source
[3] = target: T2, SARS-CoV receptor-binding domain (RBD) (SARS-CoV (GenBank NC_004718.3), UniProt P59594); assay: SPR; details: both partners purified
T2 construct: also called SARS-CoV RBD; source: High Five cells (baculovirus, pAcgp67B), purified from the medium (Ni-sepharose)

[4] = target: T1, SARS-CoV-2 receptor-binding domain (RBD); assay: cell-based or functional assay
[5] = target: T2, SARS-CoV receptor-binding domain (RBD); assay: SPR; details: both partners purified; remark: listed apart in the source

Binder	Kd [1] [nM]	Kd [2] [nM]	koff [2] [s⁻¹]	kon [2] [M⁻¹ s⁻¹]	Kd [3] [nM]	koff [3] [s⁻¹]	kon [3] [M⁻¹ s⁻¹]	Fig. S4: IC50 of neutralisation, LV-SARS-CoV-2 WT [4] [µg/mL]	Kd [5] [nM]
B1	0.00265	< 0.01	1.1e-06	180000	0.03	1.7e-06	58500	5.98	–
B2	–	0.01	1.5e-06	115000	0.37	6.3e-06	17000	10.9	3.72
